Experimental data published in publication PMC2756588.

T1: Fus1, P11710
T1 sequence (P11710 432-512, looked up): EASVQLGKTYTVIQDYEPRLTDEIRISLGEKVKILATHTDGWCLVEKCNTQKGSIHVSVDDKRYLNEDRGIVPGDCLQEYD

T2: Pex13, P80667
T2 sequence (P80667 295-386, looked up): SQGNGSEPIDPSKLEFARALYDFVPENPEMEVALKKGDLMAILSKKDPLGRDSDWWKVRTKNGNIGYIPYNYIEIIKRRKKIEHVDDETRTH

T3: Sla1-3, P32790
T3 sequence (P32790 344-424, looked up): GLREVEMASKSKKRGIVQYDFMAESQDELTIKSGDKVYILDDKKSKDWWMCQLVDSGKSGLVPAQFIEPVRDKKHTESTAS

T4: Boi1, P38041
T4 sequence (P38041 1-86, looked up): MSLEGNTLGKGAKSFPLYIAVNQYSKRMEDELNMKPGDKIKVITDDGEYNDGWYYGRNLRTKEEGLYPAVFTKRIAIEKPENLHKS

T5: Bbc1, P47068
T5 sequence (P47068 1-78, looked up): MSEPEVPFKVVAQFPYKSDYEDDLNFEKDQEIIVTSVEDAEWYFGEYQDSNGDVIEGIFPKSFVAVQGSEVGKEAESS

T6: Boi2, P39969
T6 sequence (P39969 32-116, looked up): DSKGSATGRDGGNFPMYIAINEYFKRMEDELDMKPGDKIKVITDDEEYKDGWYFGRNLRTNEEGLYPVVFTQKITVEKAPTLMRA

T7: Lsb1, P53281
T7 sequence (P53281 45-122, looked up): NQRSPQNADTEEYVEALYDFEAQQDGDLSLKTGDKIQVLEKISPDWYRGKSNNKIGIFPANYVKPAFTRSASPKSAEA

T8: Abp1, P15891
T8 sequence (P15891 535-592, looked up): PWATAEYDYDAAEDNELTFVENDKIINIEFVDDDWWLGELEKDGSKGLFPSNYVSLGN

T9: Bzz1-1, P38822
T9 sequence (P38822 478-572, looked up): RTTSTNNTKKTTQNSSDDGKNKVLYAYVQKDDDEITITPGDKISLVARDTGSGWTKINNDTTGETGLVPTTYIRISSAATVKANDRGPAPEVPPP

T10: Lsb4, P32793
T10 sequence (P32793 402-468, looked up): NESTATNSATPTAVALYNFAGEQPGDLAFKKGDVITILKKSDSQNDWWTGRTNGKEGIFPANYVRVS

T11: Cyk3, Q07533
T11 sequence (Q07533 1-83, looked up): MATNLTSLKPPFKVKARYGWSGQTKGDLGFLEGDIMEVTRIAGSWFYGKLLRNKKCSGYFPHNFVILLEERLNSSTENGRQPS

T12: Hse1, P38753
T12 sequence (P38753 208-285, looked up): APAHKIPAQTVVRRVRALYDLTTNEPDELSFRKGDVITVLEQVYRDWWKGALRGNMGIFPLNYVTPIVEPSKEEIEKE

T13: Hof1, Q05080
T13 sequence (Q05080 590-669, looked up): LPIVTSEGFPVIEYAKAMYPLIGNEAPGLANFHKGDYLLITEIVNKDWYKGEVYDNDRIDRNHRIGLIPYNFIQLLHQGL

T14: Lsb3, P43603
T14 sequence (P43603 385-451, looked up): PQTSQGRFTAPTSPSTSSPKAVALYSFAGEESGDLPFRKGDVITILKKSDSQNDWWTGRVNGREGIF

T15: Sla1-2, P32790
T15 sequence (P32790 60-140, looked up): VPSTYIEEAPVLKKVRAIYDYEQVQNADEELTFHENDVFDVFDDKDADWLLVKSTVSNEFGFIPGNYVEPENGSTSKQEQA

T16: Bud14, P27637
T16 sequence (P27637 247-328, looked up): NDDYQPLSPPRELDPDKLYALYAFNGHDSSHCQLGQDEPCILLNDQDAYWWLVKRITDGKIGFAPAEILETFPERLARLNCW

T17: Pin3, Q06449
T17 sequence (Q06449 53-122, looked up): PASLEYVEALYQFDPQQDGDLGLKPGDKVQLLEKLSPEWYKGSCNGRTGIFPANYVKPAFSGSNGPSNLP

T18: Bzz1-2, P38822
T18 sequence (P38822 568-633, looked up): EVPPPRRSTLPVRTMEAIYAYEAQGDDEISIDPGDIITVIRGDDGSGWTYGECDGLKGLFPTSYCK

T19: Nbp2, Q12163
T19 sequence (Q12163 103-180, looked up): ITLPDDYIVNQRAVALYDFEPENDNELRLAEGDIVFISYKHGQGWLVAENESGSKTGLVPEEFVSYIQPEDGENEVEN

T20: Cdc25, P04821
T20 sequence (P04821 50-136, looked up): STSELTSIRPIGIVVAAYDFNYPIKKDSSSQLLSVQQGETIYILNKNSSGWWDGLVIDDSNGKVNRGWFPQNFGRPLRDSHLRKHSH

T21: Myo5, Q04439
T21 sequence (Q04439 1072-1160, looked up): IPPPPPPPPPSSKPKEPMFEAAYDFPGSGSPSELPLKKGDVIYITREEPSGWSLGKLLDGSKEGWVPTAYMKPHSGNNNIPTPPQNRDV


What was measured:
Assay in all cases: SPOT array
Bem1-2, P29366 = conditions: median of control spots 4347
Fus1, P11710 = target: T1, Fus1, P11710; conditions: median of control spots 1200
Pex13, P80667 = target: T2, Pex13, P80667; conditions: median of control spots 1341
Sla1-3, P32790 = target: T3, Sla1-3, P32790; conditions: median of control spots 5475
Boi1, P38041 = target: T4, Boi1, P38041; conditions: median of control spots 1162
Bbc1, P47068 = target: T5, Bbc1, P47068; conditions: median of control spots 796
Boi2, P39969 = target: T6, Boi2, P39969; conditions: median of control spots 1161
Lsb1, P53281 = target: T7, Lsb1, P53281; conditions: median of control spots 388
Abp1, P15891 = target: T8, Abp1, P15891; conditions: median of control spots 935
Bzz1-1, P38822 = target: T9, Bzz1-1, P38822; conditions: median of control spots 4446
Rvs167, P39743 = conditions: median of control spots 2707
Lsb4, P32793 = target: T10, Lsb4, P32793; conditions: median of control spots 397
Myo3, P36006 = conditions: median of control spots 468
Cyk3, Q07533 = target: T11, Cyk3, Q07533; conditions: median of control spots 1451
Hse1, P38753 = target: T12, Hse1, P38753; conditions: median of control spots 1727
Hof1, Q05080 = target: T13, Hof1, Q05080; conditions: median of control spots 4086
Lsb3, P43603 = target: T14, Lsb3, P43603; conditions: median of control spots 406
Sla1-2, P32790 = target: T15, Sla1-2, P32790; conditions: median of control spots 712
Bud14, P27637 = target: T16, Bud14, P27637; conditions: median of control spots 956
Sho1, P40073 = conditions: median of control spots 1148
Pin3, Q06449 = target: T17, Pin3, Q06449; conditions: median of control spots 2171
Bem1-1, P29366 = conditions: median of control spots 4282
Bzz1-2, P38822 = target: T18, Bzz1-2, P38822; conditions: median of control spots 4538
GST = conditions: median of control spots 978
Nbp2, Q12163 = target: T19, Nbp2, Q12163; conditions: median of control spots 357
Cdc25, P04821 = target: T20, Cdc25, P04821; conditions: median of control spots 969
Myo5, Q04439 = target: T21, Myo5, Q04439; conditions: median of control spots 471

Chain of Sho1, P40073 (P40073 287-367): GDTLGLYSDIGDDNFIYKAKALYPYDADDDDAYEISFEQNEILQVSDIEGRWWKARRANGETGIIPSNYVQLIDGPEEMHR
Chain of Bem1-1, P29366 (P29366 55-141): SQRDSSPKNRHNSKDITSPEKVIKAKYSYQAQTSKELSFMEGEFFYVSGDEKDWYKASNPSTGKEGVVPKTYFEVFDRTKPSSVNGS
Chain of Rvs167, P39743 (P39743 419-482): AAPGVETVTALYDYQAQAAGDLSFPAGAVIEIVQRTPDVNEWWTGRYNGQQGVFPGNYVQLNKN
Chain of Bem1-2, P29366 (P29366 139-227): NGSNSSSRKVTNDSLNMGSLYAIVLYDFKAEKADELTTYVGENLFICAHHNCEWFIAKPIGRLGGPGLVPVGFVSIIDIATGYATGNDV

| Binder | SPOT intensity (Bem1-2, P29366) | SPOT intensity (Fus1, P11710) | SPOT intensity (Pex13, P80667) | SPOT intensity (Sla1-3, P32790) | SPOT intensity (Boi1, P38041) | SPOT intensity (Bbc1, P47068) | SPOT intensity (Boi2, P39969) | SPOT intensity (Lsb1, P53281) | SPOT intensity (Abp1, P15891) | SPOT intensity (Bzz1-1, P38822) | SPOT intensity (Rvs167, P39743) | SPOT intensity (Lsb4, P32793) | SPOT intensity (Myo3, P36006) | SPOT intensity (Cyk3, Q07533) | SPOT intensity (Hse1, P38753) | SPOT intensity (Hof1, Q05080) | SPOT intensity (Lsb3, P43603) | SPOT intensity (Sla1-2, P32790) | SPOT intensity (Bud14, P27637) | SPOT intensity (Sho1, P40073) | other results |
| --- | --- | --- | --- | --- | --- | --- | --- | --- | --- | --- | --- | --- | --- | --- | --- | --- | --- | --- | --- | --- | --- |
| PPIPIVPSSPAPPLP | 0 | 0 | 0 | 0 | 0 | 0 | 0 | 0 | 0 | 0 | 0 | 0 | 425 | 0 | 0 | 0 | 0 | 0 | 0 | 0 | SPOT intensity (Pin3, Q06449): 0; SPOT intensity (Bem1-1, P29366): 0; SPOT intensity (Bzz1-2, P38822): 0; SPOT intensity (GST): 0; SPOT intensity (Nbp2, Q12163): 0; SPOT intensity (Cdc25, P04821): 0; SPOT intensity (Myo5, Q04439): 318 |
| HAPPLPPTAPPPPSL | 0 | 0 | 0 | 0 | 0 | 0 | 0 | 0 | 0 | 0 | 0 | 0 | 465 | 0 | 0 | 11 | 0 | 0 | 0 | 0 | SPOT intensity (Pin3, Q06449): 0; SPOT intensity (Bem1-1, P29366): 0; SPOT intensity (Bzz1-2, P38822): 0; SPOT intensity (GST): 0; SPOT intensity (Nbp2, Q12163): 0; SPOT intensity (Cdc25, P04821): 0; SPOT intensity (Myo5, Q04439): 279 |
| MPAPPPPPPPPPGAF | 0 | 0 | 0 | 2 | 0 | 0 | 0 | 0 | 0 | 0 | 0 | 0 | 163 | 0 | 0 | 0 | 0 | 0 | 0 | 0 | SPOT intensity (Pin3, Q06449): 1; SPOT intensity (Bem1-1, P29366): 0; SPOT intensity (Bzz1-2, P38822): 1; SPOT intensity (GST): 0; SPOT intensity (Nbp2, Q12163): 0; SPOT intensity (Cdc25, P04821): 0; SPOT intensity (Myo5, Q04439): 49 |
| QPPLPSSAPPIPTSH | 1 | 0 | 0 | 0 | 0 | 0 | 0 | 0 | 0 | 0 | 0 | 0 | 334 | 0 | 0 | 0 | 0 | 0 | 0 | 0 | SPOT intensity (Pin3, Q06449): 0; SPOT intensity (Bem1-1, P29366): 0; SPOT intensity (Bzz1-2, P38822): 0; SPOT intensity (GST): 0; SPOT intensity (Nbp2, Q12163): 0; SPOT intensity (Cdc25, P04821): 0; SPOT intensity (Myo5, Q04439): 242 |
